Substitutions are numbered along the chain they refer to.
B1: 75110_08H06A (antibody, V domains shown)
VH: EVQLVESGGGLVQPGGSLRLSCAASGFTFSNYDMHWVRQATGKGLEWVSTIGTAGDTYYPGSVKGRFTISRENAKNSLYLQMNSLRAGDTAVYYCARGGYDYYGMDVWGQGTTVTVSS
VL: EIVLTQSPGTLSLSPGERATLSCRASQSITSIYLAWYRQKPGQAPRLLIYGASSRATGIPDRFSGSGSGTDFTLTISRLEPEDFAVYYCQQYGSSPFTFGPGTKVDIK
notes: Tested as non-clonal AlivaMab Mouse hybridoma supernatant (human variable regions and human kappa, mouse Fc); also called ADS75110 non-clonal supernatant 08H06A
B2: 75110_01J17A (antibody, V domains shown)
VH: B1 VH with N31S, A40G, G55D, K75E, Y100D, D101Y
VL: B1 VL with T5A, I29V, T30Y, S31I, I32S, R38Q, S77T, Y92F, I107F
notes: Tested as non-clonal AlivaMab Mouse hybridoma supernatant (human variable regions and human kappa, mouse Fc); also called ADS75110 non-clonal supernatant 01J17A
B3: 75110_07E04A (antibody, V domains shown)
VH: B1 VH with A24V, N31S, N76K, S77F, D101Y
VL: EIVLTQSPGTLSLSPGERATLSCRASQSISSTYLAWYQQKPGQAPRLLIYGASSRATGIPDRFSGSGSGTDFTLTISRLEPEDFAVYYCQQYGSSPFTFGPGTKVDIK
notes: Tested as non-clonal AlivaMab Mouse hybridoma supernatant (human variable regions and human kappa, mouse Fc); also called ADS75110 non-clonal supernatant 07E04A
B4: 75110_13C07A (antibody, V domains shown)
VH: B1 VH with G10V, I69L, N83H, G99A, D101G
VL: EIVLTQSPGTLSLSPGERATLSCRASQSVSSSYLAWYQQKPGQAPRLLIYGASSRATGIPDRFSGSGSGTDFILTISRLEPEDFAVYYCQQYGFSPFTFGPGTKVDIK
notes: Tested as non-clonal AlivaMab Mouse hybridoma supernatant (human variable regions and human kappa, mouse Fc); also called ADS75110 non-clonal supernatant 13C07A
B5: 75110_04F22A (antibody, V domains shown)
VH: B1 VH with N31S, M34I, D101Y
VL: B1 VL with I29V, T30Y, I32S, R38Q, Y92F, S94T
notes: Tested as non-clonal AlivaMab Mouse hybridoma supernatant (human variable regions and human kappa, mouse Fc); also called ADS75110 non-clonal supernatant 04F22A
B6: 75110_05K11A (antibody, V domains shown)
VH: B1 VH with N31S, A40P, G61A, Y100F, D101Y
VL: B1 VL with A19V, I29V, T30S, S31N, I32T, R38Q, A85V, Y92H
notes: Tested as non-clonal AlivaMab Mouse hybridoma supernatant (human variable regions and human kappa, mouse Fc); also called ADS75110 non-clonal supernatant 05K11A
B7: 75110_01K10A (antibody, V domains shown)
VH: B1 VH with G10A, S30R, Y100D, D101Y
VL: B1 VL with G9D, I29L, T30S, I32V, R38Q, S66T
notes: Tested as non-clonal AlivaMab Mouse hybridoma supernatant (human variable regions and human kappa, mouse Fc); also called ADS75110 non-clonal supernatant 01K10A
B8: 75110_04P06A (antibody, V domains shown)
VH: B1 VH with Y100D, D101Y
VL: B1 VL with G9D, I29L, T30S, I32V, R38Q, S77N, A85V
notes: Tested as non-clonal AlivaMab Mouse hybridoma supernatant (human variable regions and human kappa, mouse Fc); also called ADS75110 non-clonal supernatant 04P06A
B9: 75110_10N21A (antibody, V domains shown)
VH: B1 VH with N31S, A40V, D101Y
VL: B1 VL with I29F, T30I, I32S, R38Q, E80D, Y92S, S94N, I107V
notes: Tested as non-clonal AlivaMab Mouse hybridoma supernatant (human variable regions and human kappa, mouse Fc); also called ADS75110 non-clonal supernatant 10N21A
B10: 75110_14H13A (antibody, V domains shown)
VH: B1 VH with E72K, N83I, Y100D, D101Y
VL: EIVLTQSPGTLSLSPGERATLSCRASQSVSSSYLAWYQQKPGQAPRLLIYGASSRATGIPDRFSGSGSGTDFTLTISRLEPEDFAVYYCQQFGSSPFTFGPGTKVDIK
notes: Tested as non-clonal AlivaMab Mouse hybridoma supernatant (human variable regions and human kappa, mouse Fc); also called ADS75110 non-clonal supernatant 14H13A

Legend:
[1] = target: T1, Recombinant human CD4 (R&D Systems, Cat. 10327-CD) (human, UniProt P01730 26-390, limits assumed); assay: BLI (Octet Red 384), non-clonal supernatant captured on AMC sensors, 100 nM human CD4, 1:1 local fit;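 also: hybridoma antibodies from supernatants, one CD4 concentration giving single-point kinetics per supernatant, with curves fitted over both association and dissociation phases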
T1 construct: Bought protein; also called huCD4

[2] = target: T1, Recombinant human CD4 (R&D Systems, …); assay: BLI (Octet Red 384), non-clonal supernatant captured on AMC sensors, 100 nM human CD4

Row | Binder | Kd [1] [nM] | koff [1] [s⁻¹] | kon [1] [M⁻¹ s⁻¹] | Response [2]
1 | B1 | < 0.001 | < 1e-07 | 120000 | 0.06
2 | B2 | < 0.001 | < 1e-07 | 37000 | 0.06
3 | B3 | 11000 | 0.013 | 1200 | 0.01
4 | B4 | 84 | 0.0182 | 217000 | 0.0171
5 | B5 | < 0.001 | < 1e-07 | 15000 | 0.05
6 | B6 | < 0.001 | < 1e-07 | 12000 | 0.05
7 | B7 | 340 | 0.00042 | 1200 | 0.03
8 | B8 | < 0.001 | < 1e-07 | 12000 | 0.06
9 | B9 | 0.873 | 0.000133 | 152000 | 0.0658
10 | B10 | < 0.001 | < 1e-07 | 100000 | 0.14
